Consider 26 molecules from patent US20060241051A1 (Takeda / Millennium, published 2006).

Square brackets hold non-standard residues; d marks the D form. Primed or numbered codes have the meaning given here. Ends that are not written are not given here. * marks the point of attachment. Propanoyl(3-indol-3-yl) = O=C(CCc1c[nH]c2ccccc12)*; Phe(4-Cl) = N[C@@H](Cc1ccc(Cl)cc1)C(=O)O; Phe(4-NH2) = Nc1ccc(C[C@H](N)C(=O)O)cc1; 1Nal = N[C@@H](Cc1cccc2ccccc12)C(=O)O; 2Nal = N[C@@H](Cc1ccc2ccccc2c1)C(=O)O; Cyclohexanecarbonyl = O=C(C1CCCCC1)*; Arg(Me) = CNC(=N)NCCC[C@H](N)C(=O)O; Diphenylacetyl′ = not defined here; d3Pal = N[C@H](Cc1cccnc1)C(=O)O; amidino = N=C(N)*; azaGly = NNC(=O)O

First the molecules themselves.
B1: Compound No. 267: des(1-3)-4-(3-Indolyl)butyryl-[AzaGly7,Arg(Me)9]MS10 (peptide)
peptide: {4‑(3-Indolyl)butyryl}-NSF[azaGly]L[Arg(Me)]F-NH2
B2: Compound No. 271: des(1-2)-[AzaGly7,Arg(Me)9]MS10 (peptide)
peptide: WNSF[azaGly]L[Arg(Me)]F-NH2
modifications: N-terminus assumed
SMILES: CNC(=N)NCCC[C@H](NC(=O)[C@H](CC(C)C)NC(=O)NNC(=O)[C@H](Cc1ccccc1)NC(=O)[C@H](CO)NC(=O)[C@H](CC(N)=O)NC(=O)[C@@H](N)Cc1c[nH]c2ccccc12)C(=O)N[C@@H](Cc1ccccc1)C(N)=O
B3: Compound No. 269: des(1-3)-3-Phenylpropionyl-[AzaGly7,Arg(Me)9]MS10 (peptide)
peptide: {3‑Phenylpropionyl}-NSF[azaGly]L[Arg(Me)]F-NH2
B4: Compound No. 270: [D-Tyr1,Phe3,Ser-Phe5,AzaGly7,Arg(Me)9]MS10 (peptide)
peptide: [dY]NFNSFF[azaGly]L[Arg(Me)]F-NH2
notes: 11 residues; also called Endo-Phe5a-[D-Tyr1,Phe3,AzaGly7,Arg(Me)9]MS10
B5: Compound No. 246: [D-Tyr1,Nal(2) 3,AzaGly7,Arg(Me)9]MS10 (peptide)
peptide: [dY]N[2Nal]NSF[azaGly]L[Arg(Me)]F-NH2
modifications: N-terminus assumed
SMILES: CNC(=N)NCCC[C@H](NC(=O)[C@H](CC(C)C)NC(=O)NNC(=O)[C@H](Cc1ccccc1)NC(=O)[C@H](CO)NC(=O)[C@H](CC(N)=O)NC(=O)[C@H](Cc1ccc2ccccc2c1)NC(=O)[C@H](CC(N)=O)NC(=O)[C@H](N)Cc1ccc(O)cc1)C(=O)N[C@@H](Cc1ccccc1)C(N)=O
B6: Compound No. 278: des(1-3)-Cyclohexanecarbonyl-[AzaGly7, Arg(Me)9]MS10 (peptide)
peptide: Cyclohexanecarbonyl-NSF[azaGly]L[Arg(Me)]F-NH2
SMILES: CNC(=N)NCCC[C@H](NC(=O)[C@H](CC(C)C)NC(=O)NNC(=O)[C@H](Cc1ccccc1)NC(=O)[C@H](CO)NC(=O)[C@H](CC(N)=O)NC(=O)C1CCCCC1)C(=O)N[C@@H](Cc1ccccc1)C(N)=O
B7: Compound No. 273: des(1-2)-Amidino-[AzaGly7,Arg(Me)9]MS10 (peptide)
peptide: amidino-WNSF[azaGly]L[Arg(Me)]F-NH2
SMILES: CNC(=N)NCCC[C@H](NC(=O)[C@H](CC(C)C)NC(=O)NNC(=O)[C@H](Cc1ccccc1)NC(=O)[C@H](CO)NC(=O)[C@H](CC(N)=O)NC(=O)[C@H](Cc1c[nH]c2ccccc12)NC(=N)N)C(=O)N[C@@H](Cc1ccccc1)C(N)=O
B8: Compound No. 272: des(1-2)-Acetyl-[AzaGly7,Arg(Me)9]MS10 (peptide)
peptide: Ac-WNSF[azaGly]L[Arg(Me)]F-NH2
SMILES: CNC(=N)NCCC[C@H](NC(=O)[C@H](CC(C)C)NC(=O)NNC(=O)[C@H](Cc1ccccc1)NC(=O)[C@H](CO)NC(=O)[C@H](CC(N)=O)NC(=O)[C@H](Cc1c[nH]c2ccccc12)NC(C)=O)C(=O)N[C@@H](Cc1ccccc1)C(N)=O
B9: Compound No. 268: des(1-3)-Diphenylacetyl-[AzaGly7,Arg(Me)9]MS10 (peptide)
peptide: {Diphenylacetyl′}-NSF[azaGly]L[Arg(Me)]F-NH2
B10: Compound No. 254: des(1)-[D-Tyr2,Phe3,AzaGly7,Arg(Me)9]MS10 (peptide)
peptide: [dY]FNSF[azaGly]L[Arg(Me)]F-NH2
B11: Compound No. 277: des(1-3)-n-Hexanoyl-[AzaGly7,Arg(Me)9]MS10 (peptide)
peptide: {n‑Hexanoyl}-NSF[azaGly]L[Arg(Me)]F-NH2
B12: Compound No. 255: des(1)-[D-Tyr2,Nal(2) 3,AzaGly7,Arg(Me)9]MS10 (peptide)
peptide: [dY][2Nal]NSF[azaGly]L[Arg(Me)]F-NH2
B13: Compound No. 258: [D-Pya(3)1,AzaGly7,Arg(Me)9]MS10 (peptide)
peptide: [d3Pal]NWNSF[azaGly]L[Arg(Me)]F-NH2
modifications: N-terminus assumed
SMILES: CNC(=N)NCCC[C@H](NC(=O)[C@H](CC(C)C)NC(=O)NNC(=O)[C@H](Cc1ccccc1)NC(=O)[C@H](CO)NC(=O)[C@H](CC(N)=O)NC(=O)[C@H](Cc1c[nH]c2ccccc12)NC(=O)[C@H](CC(N)=O)NC(=O)[C@H](N)Cc1cccnc1)C(=O)N[C@@H](Cc1ccccc1)C(N)=O
B14: Compound No. 265: des(1-3)-Indole-3-carbonyl-[AzaGly7,Arg(Me)9]MS10 (peptide)
peptide: {Indole‑3‑carbonyl}-NSF[azaGly]L[Arg(Me)]F-NH2
notes: also called des(1-3)-Indole-3-carboxyl-[AzaGly7,Arg(Me)9]MS10
B15: Compound No. 245: [D-Tyr1,Nal(1)3,AzaGly7,Arg(Me)9]MS10 (peptide)
peptide: [dY]N[1Nal]NSF[azaGly]L[Arg(Me)]F-NH2
modifications: N-terminus assumed
SMILES: CNC(=N)NCCC[C@H](NC(=O)[C@H](CC(C)C)NC(=O)NNC(=O)[C@H](Cc1ccccc1)NC(=O)[C@H](CO)NC(=O)[C@H](CC(N)=O)NC(=O)[C@H](Cc1cccc2ccccc12)NC(=O)[C@H](CC(N)=O)NC(=O)[C@H](N)Cc1ccc(O)cc1)C(=O)N[C@@H](Cc1ccccc1)C(N)=O
B16: Compound No. 249: [D-Tyr1,Phe(4Cl) 3,AzaGly7,Arg(Me)9]MS10 (peptide)
peptide: [dY]N[Phe(4-Cl)]NSF[azaGly]L[Arg(Me)]F-NH2
B17: Compound No. 250: [D-Tyr1,Phe(4NH2) 3,AzaGly7,Arg(Me)9]MS10 (peptide)
peptide: [dY]N[Phe(4-NH2)]NSF[azaGly]L[Arg(Me)]F-NH2
B18: Compound No. 287: [D-Tyr1,D-Ser2,AzaGly7,Arg(Me)9]MS10 (peptide)
peptide: [dY][dS]WNSF[azaGly]L[Arg(Me)]F-NH2
B19: Compound No. 257: [D-Tyr1,D-Asn2,Phe3,AzaGly7,Arg(Me)9]MS10 (peptide)
peptide: [dY][dN]FNSF[azaGly]L[Arg(Me)]F-NH2
B20: Compound No. 288: [D-Tyr1,D-His2,AzaGly7,Arg(Me)9]MS10 (peptide)
peptide: [dY][dH]WNSF[azaGly]L[Arg(Me)]F-NH2
B21: Compound No. 284: [D-Tyr1,D-Asn2,Thr3,AzaGly7,Arg(Me)9]MS10 (peptide)
peptide: [dY][dN]TNSF[azaGly]L[Arg(Me)]F-NH2
modifications: N-terminus assumed
SMILES: CNC(=N)NCCC[C@H](NC(=O)[C@H](CC(C)C)NC(=O)NNC(=O)[C@H](Cc1ccccc1)NC(=O)[C@H](CO)NC(=O)[C@H](CC(N)=O)NC(=O)[C@@H](NC(=O)[C@@H](CC(N)=O)NC(=O)[C@H](N)Cc1ccc(O)cc1)[C@@H](C)O)C(=O)N[C@@H](Cc1ccccc1)C(N)=O
B22: Compound No. 259: [D-Ala1,AzaGly7,Arg(Me)9]MS10 (peptide)
peptide: [dA]NWNSF[azaGly]L[Arg(Me)]F-NH2
B23: Compound No. 266: des(1-3)-Indole-3-acetyl-[AzaGly7,Arg(Me)9]MS10 (peptide)
peptide: {Indole‑3‑acetyl}-NSF[azaGly]L[Arg(Me)]F-NH2
B24: Compound No. 256: des(1)-[D-Pya(3) 2,Phe3,AzaGly7,Arg(Me)9]MS10 (peptide)
peptide: [d3Pal]FNSF[azaGly]L[Arg(Me)]F-NH2
B25: Compound No. 289: des(1)-[D-Pya(3) 2,AzaGly7,Arg(Me)9]MS10 (peptide)
peptide: [d3Pal]WNSF[azaGly]L[Arg(Me)]F-NH2
modifications: N-terminus assumed
SMILES: CNC(=N)NCCC[C@H](NC(=O)[C@H](CC(C)C)NC(=O)NNC(=O)[C@H](Cc1ccccc1)NC(=O)[C@H](CO)NC(=O)[C@H](CC(N)=O)NC(=O)[C@H](Cc1c[nH]c2ccccc12)NC(=O)[C@H](N)Cc1cccnc1)C(=O)N[C@@H](Cc1ccccc1)C(N)=O
notes: also called [D-Pya(3)2,AzaGly7,Arg(Me)9]MS10-(2-10)
B26: Compound No. 260: des(1-3)-3-(3-Indolyl)propionyl-[AzaGly7,Arg(Me)9]MS10 (peptide)
peptide: {Propanoyl(3-indol-3-yl)}-NSF[azaGly]L[Arg(Me)]F-NH2

The target in one experiment is T1, human OT7T175 (metastin receptor) (human, UniProt Q969F8 1-398). As to the kind of experiment: cell-based or functional assay.
T1 sequence (Q969F8 whole entry L364H): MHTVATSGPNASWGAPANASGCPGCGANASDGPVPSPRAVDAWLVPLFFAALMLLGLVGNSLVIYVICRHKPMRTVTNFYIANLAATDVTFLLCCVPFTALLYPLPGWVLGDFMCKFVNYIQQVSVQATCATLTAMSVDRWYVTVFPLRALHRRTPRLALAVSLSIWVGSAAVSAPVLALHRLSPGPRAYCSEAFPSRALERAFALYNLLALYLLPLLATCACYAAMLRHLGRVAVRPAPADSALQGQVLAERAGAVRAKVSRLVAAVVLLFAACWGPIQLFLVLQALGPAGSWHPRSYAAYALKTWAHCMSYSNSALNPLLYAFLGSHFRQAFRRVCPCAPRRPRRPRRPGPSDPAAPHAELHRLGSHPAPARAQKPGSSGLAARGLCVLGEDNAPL
Take B1: the “intracellular Ca ion level-increasing activity (FLIPR)” value was 2 specific activity to metastin (1-54).
Still for that read-out and setting: as for B2, the figure is 1 specific activity to metastin (1-54).
Still for that read-out and setting: as for B3, the figure is 3 specific activity to metastin (1-54); as for B4, 1 specific activity to metastin (1-54).
On the same count and under the same terms, the figure for B5 is 2 specific activity to metastin (1-54); for B6 it is 2 specific activity to metastin (1-54).
Take B7: the “intracellular Ca ion level-increasing activity (FLIPR)” value was 5 specific activity to metastin (1-54).
The same measure, in the same setting: as for B8, the figure is 2 specific activity to metastin (1-54); as for B9, 1 specific activity to metastin (1-54); as for B10, 1 specific activity to metastin (1-54).
On the same count and under the same terms, the figure for B11 is 2 specific activity to metastin (1-54); for B12 it is 1 specific activity to metastin (1-54).
The same measure, in the same setting: as for B13, the figure is 2 specific activity to metastin (1-54); as for B14, 3 specific activity to metastin (1-54).
As to B15, the “intracellular Ca ion level-increasing activity (FLIPR)” value is 1 specific activity to metastin (1-54).
On to B16, for which the “intracellular Ca ion level-increasing activity (FLIPR)” value was 1 specific activity to metastin (1-54).
With B17, the “intracellular Ca ion level-increasing activity (FLIPR)” value was 1 specific activity to metastin (1-54).
Same read-out and setting: the figure for B18 is 2 specific activity to metastin (1-54).
The same measure, in the same setting: as for B19, the figure is 3 specific activity to metastin (1-54); as for B20, 1 specific activity to metastin (1-54); as for B21, 1 specific activity to metastin (1-54).
Still for that read-out and setting: as for B22, the figure is 1 specific activity to metastin (1-54); as for B23, 2 specific activity to metastin (1-54).
With B24, the “intracellular Ca ion level-increasing activity (FLIPR)” value is 1 specific activity to metastin (1-54).
Same read-out and setting: as for B25, the figure is 1 specific activity to metastin (1-54); as for B26, 5 specific activity to metastin (1-54).

A further experiment concerns the target T1, human OT7T175 (metastin receptor). As to the kind of experiment: FMAT competition with Cy-5-labeled metastin (40-54), hOT7T175-expressed CHO cells. As for the experimental part:
h0T7T175-Expressed CHO cells were cultured in MEM-α medium (nucleic acid-free) containing 10% dialyzed serum. The medium was removed and the adherent cells were washed with PBS. Then, PBS containing 5 mM EDTA was added and the cells were scraped from a flask with a cell scraper. […] To each well of a 96-Well Black Clear Bottom Plate (Applied Biosystems, Inc.), 10 μL of assay buffer containing 1% dimethylsulfoxide was added to examine total binding, 10 μL of 10 μM non-labeled peptide (having the same amino acid sequence as that of the labeled one) solution diluted with assay buffer to examine non-specific binding, and 10 μL of a test compound diluted with assay buffer to examine the binding inhibition activity of the test compound, respectively. Furthermore, 90 μL each of the cell suspension was dispensed to each well. […] The specific binding is a value obtained by subtracting the non-specific binding from the total binding.
A word on the IC50: it is the point on the concentration scale where inhibition reaches its midpoint. A high value points to weaker potency. In turn, B1 showed an IC50 of 360 nM.
On to B2, for which the IC50 worked out at 120 nM.
On the same count and under the same terms, the figure for B3 is 470 nM.
The same measure, in the same setting: the figure for B4 is 15 nM; for B5 it is 7.1 nM.
Still for that read-out and setting: the figure for B6 is 110 nM; for B7 it is 300 nM.
On to B8, for which the IC50 amounted to 540 nM.
The molecule B9 yielded an IC50 of 550 nM.
The same measure, in the same setting: the figure for B10 is 11 nM.
The molecule B11 had an IC50 of 54 nM.
The same measure, in the same setting: as for B12, the figure is 33 nM.
The same measure, in the same setting: the figure for B13 is 90 nM; for B14 it is 95 nM.
Same read-out and setting: as for B15, the figure is 98 nM; as for B16, 150 nM.
In turn, B17 yielded an IC50 of 3.7 nM.
The same measure, in the same setting: the figure for B18 is 2.3 nM.
On the same count and under the same terms, the figure for B19 is 40 nM.
Still for that read-out and setting: the figure for B20 is 0.072 nM; for B21 it is 34 nM; for B22 it is 250 nM.
Molecule B23 yielded an IC50 of 230 nM.
The same measure, in the same setting: as for B24, the figure is 22 nM; as for B25, 8.4 nM; as for B26, 320 nM.
